Molecular target: Vip3Aa protoxin (proVip3Aa, without Flag tag) (Bacillus thuringiensis)
Assay: MST; labeled proVip3Aa (333 nM) or labeled actVip3Aa (216 nM) kept constant, GST-PHB2 titrated from 0.2 nM to 7 μM; PBS pH 7.5; Monolith NT.115 Pico

Substance “GST-PHB2 (prohibitin 2 of Spodoptera frugiperda fused to glutathione-S-transferase) (natural protein)” has a Kd of 45.9 nM.

From paper PMC9037526
